Data reported in the nanobody polyreactivity screen of Harvey et al. (2022).

Test: yeast display, Sf9 membrane polyspecificity reagent, FACS + sequencing; frameworks hold sequencing errors
In short: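 In a synthetic yeast display library (Saccharomyces cerevisiae BJ5465), nanobody expression was induced with galactose for 36–48 hours. FACS gates were set low and high (top ~1%) using anti-HA fluorescence for expression and streptavidin fluorescence for binding of the Sf9 membrane reagent. Each polyreactivity label is drawn from the gate of origin.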

Sequence | polyreactivity (PSR sort gate)
QVQLVESGGGLVQAGGSLRLSCAASGRTFPGYAMGWYRQAPGKERELVAAISNSGGRTYYADSVKGRFTISRDYAKNTVYLQMNSLKPEDTAVYYCNATTDNGSNKRYYYWGQGTQVTVSS | high polyreactivity
QVQLVESGGGLVQAGGSLRLSCAASGSTFSRYAMGWYRPAPGKERELVAAISRSGGTTYYADSVKGRFTISRDNAKNTVYLQMNSLKPEDTAVYYCNARGRYEYGYWGQGTQVTVSS | high polyreactivity
QVQLVESGGGLVQAGGSLRLSCAASGSTFFFNAMGWYRQAPGKERELVASITDTSGRTYYADSVKGRFTISRDNAKNTVYLHMNSLKPEDTAVYYCDKDFDQGGREMDYWGQGTQVTVSS | low polyreactivity
QVQLVESGGGLVQAGGSLRLSCAASGFTFNDYAMGRSRQAPGKERELVAAIDWSGGRTYYADSVKGRFTISRDYEKNTVYLQMKSLKPEDTAVYYCAAVLYSRLYWYSLDYWGQGTQVTVSS | low polyreactivity
QVQLVESGGGLLQAGGSLRLSCAASGSIFPDYAKGSYRQAPGKERELVAAITGIDGSTYADSVKGRFTISRVHAKNSVYLQINRLKPEDTAVYYCNTESIRYVPWFRFDYWGQGTQVTVSS | low polyreactivity
QVQLVESGGGLVQAGGSLRLSCAASGFTFRWYAMGWYRQAPGKERELVAAITGSGGSTYYADSVKGRFTISRDNAKNTVYLQMNSLKPEDTAVYYCNRYGVRYYRYDYWGQGTQVTVSS | high polyreactivity
QVQLVESGGGLVQAGGSLRLSCAASGSIIYLYAMGWYRQAPGKERELVAAITSIGGSTYADSVKGRFTISRDNAKNTVYLQMNSLKPEDTAVYYCNTDEYPLTVQVQYYYWGQGTQVTVSS | low polyreactivity
QVQLVESGGGLVQAGGSLRLSCAASGIIFSFNAMGWYRQAPGKERELVAAITWRDGSTYYADSVKGRFTISRDNAKNTVYLQMNSLKPEDTAVYYCNADLLDISSYDGMDYWGQGTQVTVSS | low polyreactivity
QVQLVESGGGLVQAGGSLRLSCAASGFIFYKNAMGWSRQAPGKEREFVAAITWSGGNTYYADSVKGRFTISRDNAKNTVYLQLNSLKPEETAVYYCAARDSKWGQGTQVTVSS | low polyreactivity
QVHLVESGGGLVQAGGSLRLSCASSGGIFVTYAMGWYRQAPGKERELVAAITSGDSTYYADSVKGRFTISRDNAKNTVYLQMNSLKPEDTAVYYCAVGSTDRVSAQGSYFTYDYWGQGTQVTVSS | low polyreactivity
QVQLVESGGGLVQAGGSLRLSCAASGIIFQLNAMGWYRQAPGKERELVAAISSVGSTYYADSVKGRFTISRDNAKNTVYLQMNSLKPEDTAVYYCAAETYSTAHNAYFEIAYYWGQGTQVTVSS | high polyreactivity
QVQLVESGGGLVQAGGSLRLSCAASGSTFTGYAMGWYRQAPGKERELVAAITRGGSTYYADSVKGRFTISRDNAKNTVFLQMNSLKPEDTAVYYCAAKPTSREPTGPRYYYWGQGTQVTVSS | high polyreactivity
QVQLVESGGGLVQAGGSLRLSCAASGFIFTYYAMGWYRQAPGKERELVAAISSRGGSTFYADSVKGRFTISRDNAKNTVYLQMNSLKPEDTAVYYCAADKWYAANQGYYYWGQGTQVTVSS | low polyreactivity
QVQLVESGGGLVQAGGSLRLSCAASGFTLDPYAMGWYRQAPGKERELVAAIRLSGSSTYYADSVKGRFTISRDNAKNTVYLQMNSLKPEDTAVYYCAADGISHWLYRYDYWGQGTQVTVSS | low polyreactivity
QVQLVESGGGLVQAGGSLRLSCAASGSTIYGYAMGSYRQAPGKERELVAAISISGGGTYYADSVKGRFTISRDNAKNTVYIQMNSLKPEDTAVYYCARRYFWGQGTQVTVSS | low polyreactivity
QVQLVESGGGIVQAGGSLRLSCAASGSTFYSYAMGFYRQAPGKERELVAAISWDGGRTYYADSVKGRFTISRDNAKNTVYLQMNSLKPEDTAVYYCAAAYPTYRHYYWGQGTQVTVSS | low polyreactivity
QVQLVESGGGLVQAGGSLRLSCAASGSIFFQNGMGWYRQAPGKERELVAAISSSGDSTYYADSVKGRFTISRDYAKNTVYLQMNSLKPEDTAVYYCAAEPEYVSGPYDYWGQGTQVTVSS | low polyreactivity
QVQLVESGGGLVQAGGSLRLSCAASGLIFYIYAMGWYRQAPGKERELVAAITTGGRTNYADSVKGRFTISRDNAKNTVELQMNSLKPEDTAVYYCAKDFPIWISHGPDTDNDYWGQGTQVTVSS | low polyreactivity
QVQLVESGGGLVQAGGSVRLSCAASGRIFGWYAMGCYRPAPGKERELVAAIPWSGDSTYYADSVKGRFTISRDNAKNTVYLQMNSLKPEDTAVYYCNKVRGYPRVAGYYSWGQGTQVTVSS | low polyreactivity
QVQLVESGGGLVQAGGSLRLSCDASGYIFSANAMGWYRQSPGKERELVAAITSSGGSTYYADSVKGRFTISRDNAKNTVYLQMNSLKPEDTAVYYCAAYSIYYRSGYPSRYRYYYWGQGTQVTVSS | high polyreactivity
QVQLVESGGGLVQAGGSLRLSCAASARTFSYYAMGLYRQEPGKERELVAAIRRSSGTTYYADSVKGRFTISSDNAKYSVYLQMNSLKPEDTADYYCNARSRRASIKRDYWGQGTQVSVSS | high polyreactivity

Sequence | polyreactivity (PSR sort gate)
QVQLVESGAGLVQAGGSLRLSCAASGSILKKYGMGLSRQAPGKERELVARISKSGGSTFYADSVKGRFTISRDNAKNTVYLQMNSLKPEDTAVYYCATLKYPYATSQGYDYWGQGTQVTVSS | high polyreactivity
QVQLEESGGGLVQAGGSLRLSSAASGTISATYAMGWYRQAPGKERELVAAISRNGGSTYYADSVKGRFTISRDNAKNTVYLQMNSLKPEDTAVYYCATSSSKSMYWGQGTQVTVSS | high polyreactivity
QVQHVESVGGLVQAGGSLRLICADSGFTFWPYAMGWYRPAPGTERELVAAITSSGSTNYADSVKGRFTISRDNAKNTVYLQMNSMKQEDTAVYYCAADHRPWRFQSSVQLYYYWGQGTQVTVSS | low polyreactivity
QVQHVESGGGLVQAGGSLRLSCAASGRTITLNAMGWYRQAPGKERELVAAITWGAGSTYYADSVKGRFTISRDNAKNTVYLQMNSLKPEDTAVYYCAARFHGAYYRYRSPSMYYWGQGTQVTVSS | high polyreactivity
QGQRVESGGGLVQAGASLRLSCAASGFIFWEYAMGWSRQAPGKERELVAAISDSGGDTYYADSVKGRFTISRDNAKNTVYLEMHSLKPEDSAVYFCAADVELWVFRGQQYDYWGQGTQVTVSS | low polyreactivity
QVQLVESGGGLVQAGGSLRLSCAASGSTFTHYAMGWYRQAPGKERELVAAISSGGSTYYADSVKGRFTISRDNAKNTVYLQMNILKPEDTAVYYCASDYYWHDWWYPHDYWGQGTQVTLSS | low polyreactivity
QVQLVESGGGLVQAGGSLRLSCAASGFTFPFYAMGWYRQAPGKERELVAAITSRGGSTYYADSVKGRFTISRDNAKNTVYLQMNSLKPEDTAVYYCAADESGADYYYWGQGTQVTVSS | high polyreactivity
QVQHVESGGGLVQAGGSLRLSCAASGLTFANYVMGWYRQAPGKERELVASISISGGSTYYADSVKGRFTISRDNAKNTVYLQMNSLKPEDTAVYYCAASFVSSYQYDYWGQGTQVTVSS | high polyreactivity
QVQLVESGGGLVQAGGSLRLSCAASGRIFYGYARGWYRQAPGKERELVATITWSGGSTYYADSVKGRFTISRDNAKNTVYLQMNSLNPEDTAVYYCAAYSPYIYQAYRYDYWGQGTQVTVSS | low polyreactivity
QVQLVESGGGLVQAGGSLRLSCAASVYTIGLYAMGCYRQAPGKEMELVAAMSWSGGSTYYADSVKGPFTISRDNAKKTVYLQMNSLKPEDTAVYYCAAVPYFSLEMGYWGQGTQVTVSS | low polyreactivity
QVQLVESVGGLVQAGGSLRLSCAASGSTFTYNDLGWYRQAPGKERELVARITFSSGRTYYADSVKGRFTISRDNAKNTVYLQMNSLTPEDTAVYDCARQWYWPPGYYIGQGYEYWGQGTQVTVSS | low polyreactivity
QVHLVESGGGLVQAGGSLRLSCSASGFTFGSNAMGWYRQAPGKERELVAAINYSGLRTYYADSVKGRFTISRDNAKNTVYLQMNSLKPEDTAVYDCAARTSIVTRLRYGYWGQGTQVTVSS | high polyreactivity
QVQLVESGGGLVQAGGSLRLSCAASGRIFRVYTMGWYRQAPGKERQLVATISYRGGSTYYADSVKGRFTISRDNAKNTVFLQMNSLTPDDNAVYNCAARLPADPGKTPGTLRTLDYWGQGTQVTVSS | high polyreactivity
QVQLVESGGGLVQAGGRLRLSCAPSGSTFSTYAMGSYRQAPGNERELVAVITWRGGSTYYADSVKGRFTISRDNAKNTVYLQMNSLKPEDTAVYYCAAEGESPEYDYWGQGTQVTVSS | low polyreactivity
QVQLVESGGGLVQAGGSLRLSCAASGRIFPYYAMGWYRQAPGKERELVATITSGGSTYYADSVKGRFTISRDNAKNTVYLQMNSLKPEDTAVYYCAARYPSIYYYRYDYWGQGTQVTVSS | high polyreactivity
QVQLVESGGGLVQAGGSLRLSCAASGSIFVYNAMGWYRQAPGKERELVAAISTSGGRTYYADSVKGRFTISRDNAKNTVYLQMNSLKPEDTAVYYCNALGYWRRVVDGFDYWGQGTQVTVSS | high polyreactivity
QVQLVESGGGLVQAGGSLRLSCAASGSISYYNAMGWYRQAPGKERELVATITDSGGSTYYADSVKGRFTISRDNAKNTVYLQMNSLKPEDTAVYYCAVDYSEWYSIYDYWGQGTQVTVSS | low polyreactivity
QVQLVESGGGLVQAGGSLRLSCAASGRIFPRYAMGWYRQAPGKERELVARITRRGGITYYADSVKGRFTISRDNAKNTVYLQMNSLTPEDTAVYYCNVDYYRGGDFSYGYDYWGQGTQVTVSS | high polyreactivity
QVQRVESGGGLVQAGGSLRLSCAASGFIFETYAMGWYRQAPGKERELVAAISWRTGRTYYADSVKGRFTISRDNAKNTVYLQMNSLKPEDTAVYYCNADYGGTSTLKDFDYWGQGTQVTVSS | low polyreactivity
QVQLVESGGGLVQAGGSLRLSCAATGSTFASYAMGWYIQAPGKERELVAAITNGGSTNYADSVKGRFTISRDNAKNNVYLQMNSLNPEDTAVYYCAAYDGFPRRYDYWGQGTQVTVSS | low polyreactivity
